Target: sgk1_human SGK1 (UniProt O00141)
Sequence (O00141 whole entry): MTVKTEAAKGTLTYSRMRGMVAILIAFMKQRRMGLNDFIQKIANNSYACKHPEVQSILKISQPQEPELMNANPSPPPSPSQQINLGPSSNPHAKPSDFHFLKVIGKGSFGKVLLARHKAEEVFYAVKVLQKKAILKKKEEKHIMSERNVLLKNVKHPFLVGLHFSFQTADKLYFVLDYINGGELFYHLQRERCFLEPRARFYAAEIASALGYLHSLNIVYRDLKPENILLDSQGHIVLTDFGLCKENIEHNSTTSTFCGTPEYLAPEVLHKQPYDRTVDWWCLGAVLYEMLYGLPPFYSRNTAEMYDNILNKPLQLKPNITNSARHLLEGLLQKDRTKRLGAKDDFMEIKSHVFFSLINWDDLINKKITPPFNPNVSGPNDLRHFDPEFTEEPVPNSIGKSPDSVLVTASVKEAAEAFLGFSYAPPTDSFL

| effect of a mutation on the interaction | Substance |
| --- | --- |
| decreasing interaction strength | Serine/threonine-protein kinase WNK4 (Mus musculus), Q80UE6 Q562E |
| decreasing interaction strength | Serine/threonine-protein kinase WNK4 (Mus musculus), Q80UE6 S1169D |
